Assay results as given in US20130039850A1.

Experiments:
[1] = molecular target: recombinant soluble human CD4 (human) (UniProt P01730); assay: SPR sensor chip; sCD4 amine-coupled, antibody flowed over
[2] = molecular target: recombinant soluble human CD4 (human) (UniProt P01730); assay: BIAcore; rCD4 coupled to chip, mAb flowed (avidity)

Ka [1]: 3.7e+10 M⁻¹
koff [1]: 4.2e-05 s⁻¹
kon [1]: 150000 M⁻¹ s⁻¹
Ka [2]: 3.7e+10 M⁻¹
koff [2]: 4.2e-06 s⁻¹
kon [2]: 150000 M⁻¹ s⁻¹
Substance: mouse anti-human CD4 monoclonal antibody Leu3a (Becton Dickinson)
